From patent publication US20140080757A1 (ZEALAND PHARMA A S, published 2014)
One block for each binder: values may come before it. Numbered stars: 1 amine (or outer) side, 2 acyl side, 3 side chain; on linkers, the order of the positions; unused ones are H or OH. Square brackets hold non-standard residues; d marks the D form. Side chains are listed from the residue outwards. * marks the point of attachment. γGlu = O=C(O)[C@H](CCC(=O)[*:2])N[*:1]; Palmitoyl = CCCCCCCCCCCCCCCC(=O)*; Aib = CC(C)(N)C(=O)O

Tests used:
Experiment in all cases: cell-based or functional assay
[1] = target: human glucagon receptor (Glucagon-R) (human, UniProt P47871 26-477)
[2] = target: human glucagon-like peptide 1 receptor (GLP-1R) (human, UniProt P43220 24-463)
[3] = target: T1, endogenous GLP-1 receptor of a murine insulinoma cell line (murine, UniProt O35659 22-463)
T1 sequence (looked up): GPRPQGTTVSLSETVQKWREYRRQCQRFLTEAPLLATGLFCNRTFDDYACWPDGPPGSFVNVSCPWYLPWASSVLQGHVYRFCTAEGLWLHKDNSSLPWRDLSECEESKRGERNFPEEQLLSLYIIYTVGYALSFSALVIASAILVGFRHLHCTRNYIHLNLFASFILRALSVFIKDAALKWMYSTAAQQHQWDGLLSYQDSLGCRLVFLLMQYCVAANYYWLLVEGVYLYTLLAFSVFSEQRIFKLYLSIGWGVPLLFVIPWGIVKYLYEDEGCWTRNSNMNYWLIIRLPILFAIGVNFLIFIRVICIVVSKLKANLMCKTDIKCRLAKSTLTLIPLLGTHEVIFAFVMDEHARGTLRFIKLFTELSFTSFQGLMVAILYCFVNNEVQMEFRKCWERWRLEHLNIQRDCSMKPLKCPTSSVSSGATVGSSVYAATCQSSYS

[4] = target: endogenous glucagon receptor of primary rat hepatocytes (rat, UniProt P30082 27-485)
Sequence of endogenous glucagon receptor of primary rat hepatocytes (P30082 27-485): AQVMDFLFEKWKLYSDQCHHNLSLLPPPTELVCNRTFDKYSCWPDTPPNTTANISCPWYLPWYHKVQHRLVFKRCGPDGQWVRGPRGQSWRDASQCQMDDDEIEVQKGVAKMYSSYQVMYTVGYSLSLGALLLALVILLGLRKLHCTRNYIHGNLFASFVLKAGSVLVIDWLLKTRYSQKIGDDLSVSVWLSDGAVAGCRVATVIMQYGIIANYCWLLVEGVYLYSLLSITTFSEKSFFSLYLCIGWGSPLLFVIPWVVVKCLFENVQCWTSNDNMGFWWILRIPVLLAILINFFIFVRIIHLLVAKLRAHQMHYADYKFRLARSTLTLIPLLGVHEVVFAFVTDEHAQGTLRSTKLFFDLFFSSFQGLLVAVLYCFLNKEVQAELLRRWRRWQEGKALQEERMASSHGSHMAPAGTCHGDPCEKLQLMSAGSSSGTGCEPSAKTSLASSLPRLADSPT

Sequence of human glucagon receptor (Glucagon-R) (P47871 26-477): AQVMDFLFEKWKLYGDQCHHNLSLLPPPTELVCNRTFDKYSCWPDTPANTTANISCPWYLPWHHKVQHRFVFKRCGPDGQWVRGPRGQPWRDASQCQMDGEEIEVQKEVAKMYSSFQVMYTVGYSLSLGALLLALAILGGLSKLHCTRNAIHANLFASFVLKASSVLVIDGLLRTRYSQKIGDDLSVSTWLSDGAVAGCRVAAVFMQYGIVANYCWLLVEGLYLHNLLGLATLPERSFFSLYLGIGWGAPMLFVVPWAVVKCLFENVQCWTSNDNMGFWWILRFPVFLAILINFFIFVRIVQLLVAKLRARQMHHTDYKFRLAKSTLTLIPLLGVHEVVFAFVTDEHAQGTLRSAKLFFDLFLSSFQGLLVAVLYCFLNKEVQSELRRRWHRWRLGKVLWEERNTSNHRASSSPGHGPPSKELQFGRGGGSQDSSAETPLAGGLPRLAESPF

EC50 hGCGR CHO-K1 [nM] (cAMP) [1]: 0.92 nM
EC50 hGLP-1R CHO-K1 [nM] (cAMP) [2]: 0.11 nM
Ratio GLP-1/Glucagon (EC50 hGLP-1R / EC50 hGCGR) [2]: 0.12 ratio
EC50 GLP-1R (murine insulinoma cells) [nM] (cAMP) [3]: 0.33 nM
EC50 GLP-1R Rat hepat. [nM] (inhibition of glycogen synthesis) [4]: 6.15 nM
B1: Compound 24 (peptide)
peptide: H-H[Aib]QGTFTSDYSKYLESK([γGlu-Palmitoyl])AAEDFVEWLESA-NH2
SMILES: CCCCCCCCCCCCCCCC(=O)N[C@@H](CCC(=O)NCCCC[C@H](NC(=O)[C@H](CO)NC(=O)[C@H](CCC(=O)O)NC(=O)[C@H](CC(C)C)NC(=O)[C@H](Cc1ccc(O)cc1)NC(=O)[C@H](CCCCN)NC(=O)[C@H](CO)NC(=O)[C@H](Cc1ccc(O)cc1)NC(=O)[C@H](CC(=O)O)NC(=O)[C@H](CO)NC(=O)[C@@H](NC(=O)[C@H](Cc1ccccc1)NC(=O)[C@@H](NC(=O)CNC(=O)[C@H](CCC(N)=O)NC(=O)C(C)(C)NC(=O)[C@@H](N)Cc1c[nH]cn1)[C@@H](C)O)[C@@H](C)O)C(=O)N[C@@H](C)C(=O)N[C@@H](C)C(=O)N[C@@H](CCC(=O)O)C(=O)N[C@@H](CC(=O)O)C(=O)N[C@@H](Cc1ccccc1)C(=O)N[C@H](C(=O)N[C@@H](CCC(=O)O)C(=O)N[C@@H](Cc1c[nH]c2ccccc12)C(=O)N[C@@H](CC(C)C)C(=O)N[C@@H](CCC(=O)O)C(=O)N[C@@H](CO)C(=O)N[C@@H](C)C(N)=O)C(C)C)C(=O)O

EC50 hGCGR CHO-K1 [nM] (cAMP) [1]: 0.1 nM
EC50 hGLP-1R CHO-K1 [nM] (cAMP) [2]: 0.24 nM
Ratio GLP-1/Glucagon (EC50 hGLP-1R / EC50 hGCGR) [2]: 2.4 ratio
EC50 GLP-1R (murine insulinoma cells) [nM] (cAMP) [3]: 0.35 nM
EC50 GLP-1R Rat hepat. [nM] (inhibition of glycogen synthesis) [4]: 0.28 nM
B2: Compound 22 (peptide)
peptide: H-HSQGTFTSDYSKYLEEK([γGlu-Palmitoyl])AAKDFIEWLESA-NH2
SMILES: CCCCCCCCCCCCCCCC(=O)N[C@@H](CCC(=O)NCCCC[C@H](NC(=O)[C@H](CCC(=O)O)NC(=O)[C@H](CCC(=O)O)NC(=O)[C@H](CC(C)C)NC(=O)[C@H](Cc1ccc(O)cc1)NC(=O)[C@H](CCCCN)NC(=O)[C@H](CO)NC(=O)[C@H](Cc1ccc(O)cc1)NC(=O)[C@H](CC(=O)O)NC(=O)[C@H](CO)NC(=O)[C@@H](NC(=O)[C@H](Cc1ccccc1)NC(=O)[C@@H](NC(=O)CNC(=O)[C@H](CCC(N)=O)NC(=O)[C@H](CO)NC(=O)[C@@H](N)Cc1c[nH]cn1)[C@@H](C)O)[C@@H](C)O)C(=O)N[C@@H](C)C(=O)N[C@@H](C)C(=O)N[C@@H](CCCCN)C(=O)N[C@@H](CC(=O)O)C(=O)N[C@@H](Cc1ccccc1)C(=O)N[C@H](C(=O)N[C@@H](CCC(=O)O)C(=O)N[C@@H](Cc1c[nH]c2ccccc12)C(=O)N[C@@H](CC(C)C)C(=O)N[C@@H](CCC(=O)O)C(=O)N[C@@H](CO)C(=O)N[C@@H](C)C(N)=O)[C@@H](C)CC)C(=O)O

EC50 hGCGR CHO-K1 [nM] (cAMP) [1]: 0.25 nM
EC50 hGLP-1R CHO-K1 [nM] (cAMP) [2]: 0.13 nM
Ratio GLP-1/Glucagon (EC50 hGLP-1R / EC50 hGCGR) [2]: 0.52 ratio
EC50 GLP-1R (murine insulinoma cells) [nM] (cAMP) [3]: 0.31 nM
EC50 GLP-1R Rat hepat. [nM] (inhibition of glycogen synthesis) [4]: 1.32 nM
B3: Compound 23 (peptide)
peptide: H-H[Aib]QGTFTSDYSKYLESK([γGlu-Palmitoyl])AAHDFVEWLESA-NH2
SMILES: CCCCCCCCCCCCCCCC(=O)N[C@@H](CCC(=O)NCCCC[C@H](NC(=O)[C@H](CO)NC(=O)[C@H](CCC(=O)O)NC(=O)[C@H](CC(C)C)NC(=O)[C@H](Cc1ccc(O)cc1)NC(=O)[C@H](CCCCN)NC(=O)[C@H](CO)NC(=O)[C@H](Cc1ccc(O)cc1)NC(=O)[C@H](CC(=O)O)NC(=O)[C@H](CO)NC(=O)[C@@H](NC(=O)[C@H](Cc1ccccc1)NC(=O)[C@@H](NC(=O)CNC(=O)[C@H](CCC(N)=O)NC(=O)C(C)(C)NC(=O)[C@@H](N)Cc1c[nH]cn1)[C@@H](C)O)[C@@H](C)O)C(=O)N[C@@H](C)C(=O)N[C@@H](C)C(=O)N[C@@H](Cc1c[nH]cn1)C(=O)N[C@@H](CC(=O)O)C(=O)N[C@@H](Cc1ccccc1)C(=O)N[C@H](C(=O)N[C@@H](CCC(=O)O)C(=O)N[C@@H](Cc1c[nH]c2ccccc12)C(=O)N[C@@H](CC(C)C)C(=O)N[C@@H](CCC(=O)O)C(=O)N[C@@H](CO)C(=O)N[C@@H](C)C(N)=O)C(C)C)C(=O)O
